# Laboratory results as given in patent US20260256913A1 (UTC TYHERAPEUTICS SHANGNAI, published 2026).
# Assays:
# [1] = target: T1, CD40-Fc recombinant protein (human, UniProt P25942 21-193); assay: flow cytometry, CD40-Fc staining of transduced T cells at day 13
# T1 construct: also called CD40-Fc protein; CD40-Fc antigen; not shown: Fc part; detected with anti-human IgG Fc antibody
# Text: Lentivirus-based CART cells were generated using the following procedures: T cells were isolated from PBMC and activated by anti-CD3/CD28 beads (T cell:beads=1:3). […] At day 13, the CAR expression was detected using anti-CD27 antibody, and the expression of LACO was detected using CD40-Fc (FIG. 42A-42B and Table 10). Generally, the transduction efficiency was between 30% to 50%.
# [2] = target: CD40-Fc recombinant protein (human) (UniProt P25942); assay: flow cytometry, CD40-Fc staining of transduced T cells at day 13; control CAR without LACO
LACO % (cells positive in CD40-Fc staining) [1],LACO/MFI (CD40-Fc staining) [1],LACO % (cells positive in CD40-Fc staining) [2],LACO/MFI (CD40-Fc staining) [2],Binder
27.3%,127 MFI,–,–,"LACO A409-9.3h11 (of CD27z-9-9.3) (bispecific antibody, Anti-CD40 scFv 409 joined to anti-CD28 scFv 9.3h11, co-expressed with CD27z through T2A) QAVLTQPPSASGAPGQRVSISCSGGSSNIGSHTVNWYQQLPGAAPRLLMFSNYQRPSGVPDRFSASKSGTSASLAISGLRSEDEADYYCAAWDGTLKGYVFGTGTKVTVLGGGGSGGGGSGGGGSEVQLVESGGGVVLPGRSLRLSCAASGFTLRSYGMHWVRQATGKGLEWVSAIGTAGDTYYPGSVKGRFTISRENAKNSLYLQMNSLRAGDTAVYYCARADRLGGYGMDVWGQGTTVTVSSGGGGSQVKLQESGPGLVKPSETLSITCTVSGFSLSDYGVHWVRQSPGKGLEWLGVIWAGGGTNYNSALMSRKTISKDNSKSQVFLKMSSLTAADTAVYYCARDKGYSYYYSMDYWGQGTTVTVSSGGGGSGGGGSGGGGSDIQLTQSPSSLSVSVGDRVTISCRASESVEYYVTSLMQWYQQKPGQAPKLLIFAASNVESGVPSRFSGSGSGTNFTLTISSVQEEDFAMYFCQQSRKVPYTFGGGTKLEIK"
51.4%,221 MFI,–,–,"LACO A4025-9.3h11 (of CD27z-25-9.3) (bispecific antibody, Anti-CD40 scFv 4025 joined to anti-CD28 scFv 9.3h11, co-expressed with CD27z through T2A) QSALTQPASVSGSPGQSITVSCTGTRSDIGDYNYVSWYQQHPGKAPKLIIYDVSSRPSGVSNRYSGSKSGNTASLTISGLQAEDEADYYCSSYTSSSTLVFGGGTKVTVLGGGGSGGGGSGGGGSQVQLVQSGGGLVQPGGSLRLSCAASGFTFSSNWMSWVRQAPGKGLEWVANINQDGSEKYYVDSVKGRFTISRDNAKNSLYLQLNSLRAEDTAEYYCARGGYRYAYWGQGTLVTVSSGGGGSQVKLQESGPGLVKPSETLSITCTVSGFSLSDYGVHWVRQSPGKGLEWLGVIWAGGGTNYNSALMSRKTISKDNSKSQVFLKMSSLTAADTAVYYCARDKGYSYYYSMDYWGQGTTVTVSSGGGGSGGGGSGGGGSDIQLTQSPSSLSVSVGDRVTISCRASESVEYYVTSLMQWYQQKPGQAPKLLIFAASNVESGVPSRFSGSGSGTNFTLTISSVQEEDFAMYFCQQSRKVPYTFGGGTKLEIK"
–,–,2.9%,44.3 MFI,CD27-CAR (CD27z) (protein) ATPAPKSCPERHYWAQGKLCCQMCEPGTFLVKDCDQHRKAAQCDPCIPGVSFSPDHHTRPHCESCRHCNSGLLVRNCTITANAECACRNGWQCRDKECTECDPLPNPSLTARSSQALSPHPQPTHLPYVSEMLEARTAGHMQTLADFRQLPARTLSTHWPPQRSLCSSDFIRILVIFSGMFLVFTLAGALFLHQRRKYRSNKGESPVEPAEPCRYSCPREEEGSTIPIQEDYRKPEPACSPRVKFSRSADAPAYQQGQNQLYNELNLGRREEYDVLDKRRGRDPEMGGKPRRKNPQEGLYNELQKDKMAEAYSEIGMKGERRRGKGHDGLYQGLSTATKDTYDALHMQALPPR
